The data set concerns MS2 coat protein. Description: apparent KD of MS2 coat protein; designed switch direction (-1 OFF switch, 1 ON switch): -1; higher = weaker reporter binding. The method in brief:
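SNAP-549-labelled MS2 coat protein was titrated, doubling from 0.7 or 1.5 nM to 3 µM, over designed RNA switches transcribed on Illumina chips by stalled E. coli RNA polymerase. Runs were done without input, with 200 uM small-molecule ligand, or with an oligonucleotide input. Apparent KD is the per-design median over clusters of curve-fitted normalised fluorescence.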

Where [1] appears, read: Eterna round: R95, input ligand: FMN 200 uM.
The mark [2] stands for this setting: Eterna round: R95, input ligand: microRNA oligo, concentration not stated.
The mark [3] stands for this setting: Eterna round: R95, input ligand: none.
[4] abbreviates: input ligand: microRNA oligo, concentration not stated.

In the case of “GAUUAUGCGAGCUUUAGGGACAUGAGGAUCACCCAUGUUCGUCUUAUUGGUCUGGAUACACUGACAUACCUAAAUCU [JMF 60] (puzzle: Sensor v3, turn-off variant 1)”, the “apparent KD of MS2 coat protein” value under setting [1] is 16.8 nM, the “apparent KD of MS2 coat protein” value under setting [2] is 22.6 nM and the “apparent KD of MS2 coat protein” value under setting [3] was 18.4 nM.

With “GAUUAUGCGAGCUUUAGGGACAUGAGGAUCACCCAUGUUCGUCUUAUUGGUCUGGAUGCACUAACAUACCUAAAUCU [JMF 28] (puzzle: Sensor v3, turn-off variant 1)”, the “apparent KD of MS2 coat protein” value is, setting by setting: under setting [1], 22.4 nM; under setting [2], 30.4 nM; under setting [3], 24 nM.

Take “GAUUAUGCGAGCUUUAGGGACAUGAGGAUCACCCAUGUUCGUCUUGUUGAUCUAGGUACGCUGACAUACCUAAAUCU [JMF 99] (puzzle: Sensor v3, turn-off variant 1)”: the “apparent KD of MS2 coat protein” value under setting [1] came to 19.6 nM, the “apparent KD of MS2 coat protein” value under setting [2] stood at 25.6 nM and the “apparent KD of MS2 coat protein” value under setting [3] amounted to 19.7 nM.

For “GAUUGACAUGAGGAUCACCCAUGUGAGGAUAUCGGCCGGACCGUGUUGGCUUCCGUCGCGAGAAGGCGCAUAGG [Exclusion 1 V39] (puzzle: Exclusion 1)”, the “apparent KD of MS2 coat protein” value runs as follows: under setting [1], 173 nM; under setting [2], 82.2 nM; under setting [3], 101 nM.

As to “GAUUGACAUGAGGAUCACCCAUGUGAGGAUAUCGGCUGGACCGUGUUGGCUUCCGUUUCGAGAAGGCGCAUAGG [Exclusion 1 V44] (puzzle: Exclusion 1)”, the “apparent KD of MS2 coat protein” value under setting [2] is 23.2 nM.

Turning to “GAUUGCUCGUCUUGAAAACACAUGAGGAUCACCCAUGUAACUAGGGAAACCACGAUUAUAUUCGCUUUUCAGUGUAA [Eternabot (L2) Solution 2] (Eterna round: R97, puzzle: Sensor, turn-off variant 1)”, the “apparent KD of MS2 coat protein” value turned out to be 29.6 nM (input ligand: FMN 200 uM) and 34.2 nM (input ligand: none).

Take “GCAAGAAUAGGAUAUACAACAUGCCAGCUUCUUUACAACGCACAUGAGGAUCACCCAUGUAGAAGGGUUCUCUA [Exclusion-2-#13] (Eterna round: R97, puzzle: Exclusion 2)”: the “apparent KD of MS2 coat protein” value is, setting by setting: (input ligand: FMN 200 uM) 209 nM; (input ligand: none) 261 nM.

With “GCAAGAUUCUGAGGAUAUGCGCUACAUCCCACAGCAGAAGGCGGAAAUUGACUGACAUGAGGAUCACCCAUGUGAUCCGCUUUC [Eternabot solution 33] (Eterna round: R96, puzzle: Exclusion NG 1)”, the “apparent KD of MS2 coat protein” value (input ligand: FMN 200 uM) was 32.7 nM, the “apparent KD of MS2 coat protein” value under setting [4] turned out to be 21.2 nM and the “apparent KD of MS2 coat protein” value (input ligand: none) stood at 17.7 nM.

As for “GCAAGCUUUUGCUCGUCUUACAUGAGGAUCACCCAUGUUGGGUCCGGUCGCCGCGGCCGGGCCGGCCGGGCGCCGGG [-38, -65.5 kcal, A 10%] (Eterna round: R97, puzzle: Sensor, turn-off variant 1)”, the “apparent KD of MS2 coat protein” value reads like this: (input ligand: FMN 200 uM) 31.2 nM; (input ligand: none) 33.3 nM.

“GCACGGAGUGUAGGAUAUCUGUGCGAUUAGCUCAGAGAAGGACACAUGAGGAUCACCCAUGUGUUCCAGCGAAAGCUUCCGUGC [Eli exng1 - 047] (Eterna round: R96, puzzle: Exclusion NG 1)”: the “apparent KD of MS2 coat protein” value runs as follows: (input ligand: FMN 200 uM) 8.15 nM; under setting [4], 9.32 nM; (input ligand: none) 10.6 nM.

For the sequence “GCACUGACAGGAUAUACAUGAGGAUCACCCAUGUGACCCUUAUAGUACUCGCGUACUAGUAGAAGGGUCUGUGC [Omei Ex3 Model Bachelor's Dilema v33] (Eterna round: R97, puzzle: Exclusion 3)”, the “apparent KD of MS2 coat protein” value reads like this: (input ligand: FMN 200 uM) 324 nM; (input ligand: none) 59.4 nM.

For the sequence “GCACUGGCAGGAUAUACAUGAGGAUCACCCAUGUGAUCCCUUAGGUACAAAAGUACUAGUAGAAGGGCCUGUGC [Omei Ex3 Model Bachelor's Dilema v48] (Eterna round: R97, puzzle: Exclusion 3)”, the “apparent KD of MS2 coat protein” value (input ligand: FMN 200 uM) turned out to be 294 nM and the “apparent KD of MS2 coat protein” value (input ligand: none) amounted to 968 nM.

For the sequence “GCAGCAUAGUAAACAUACUGUUACAUGAGGAUCACCCAUGUACAGGAUAUGGUCUGGAUUACAGGCCAGAAGGGUACAAGCUGC [Eli exng3 - 023] (Eterna round: R96, puzzle: Exclusion NG 3)”, the “apparent KD of MS2 coat protein” value is 8.36 nM (input ligand: FMN 200 uM), 13 nM under setting [4] and 12.8 nM (input ligand: none).

Take “GCAGCAUAGUUAACAUACUGUUACAUGAGGAUCACCCAUGUACAGGAUAUGGUCUGGAUUACAGGCCAGAAGGGUACAAGCUGC [Eli exng3 - 020] (Eterna round: R96, puzzle: Exclusion NG 3)”: the “apparent KD of MS2 coat protein” value runs as follows: (input ligand: FMN 200 uM) 10.7 nM; under setting [4], 7.8 nM; (input ligand: none) 12.6 nM.

Consider “GCAGGAUAAGUCAGGAUAUACCUAUGGAUACAUAGGUAGAAGGGACAUGAGGAUCACCCAUGUGACUCGCCUGC [Fiskers BMX 4 - 73] (puzzle: Brourd's mod of Exclusion 4)”, for which the “apparent KD of MS2 coat protein” value under setting [2] came out at 27.6 nM.

Turning to “GCAGGAUAAGUCAGGAUAUACCUAUGGAUACAUAGGUAGAAGGGACAUGAGGAUCACCCAUGUUACUCGCCUGC [Fiskers BMX 4 - 74] (puzzle: Brourd's mod of Exclusion 4)”, the “apparent KD of MS2 coat protein” value under setting [2] turned out to be 13.6 nM.

As for “GCAGGCGUCUAGGCUCGUCUUAUUUUGAGAGGAUUGAUAACAUGAGGAUCACCCAUGUUUGUGGGAGAGUUGCAGUG [JR_SV3TOV2_Sub015] (puzzle: Sensor v3, turn-off variant 2)”, the “apparent KD of MS2 coat protein” value is, setting by setting: under setting [1], 121 nM; under setting [2], 241 nM; under setting [3], 143 nM.

As to “GCAUCACAUGUCAGGAUAUGCUGUACCUUGGUACAGCAGAAGGGACAUGAGGAUCACCCAUGUGCCUAUGAUGC [JL-BMX4-4.11] (Eterna round: R97, puzzle: Brourd's mod of Exclusion 4)”, the “apparent KD of MS2 coat protein” value was 555 nM (input ligand: FMN 200 uM) and 59.3 nM (input ligand: none).

Regarding “GCAUCCAAUGUGAGGAUAUACCUCUGGAUACAGAGGUAGAAGGCACAUGAGGAUCACCCAUGUUACUAGGAUGC [Fiskers BMX 4 - 36] (puzzle: Brourd's mod of Exclusion 4)”, the “apparent KD of MS2 coat protein” value under setting [2] amounted to 19.3 nM.

As to “GCAUUGAGUGUGAGGAUAUGCUGGUCCUAAGAUCAGCAGAAGGCACAUGAGGAUCACCCAUGUGAAAACAAUGC [Mat - Exclusion 4 - JL Mod - D65] (puzzle: Brourd's mod of Exclusion 4)”, the “apparent KD of MS2 coat protein” value is, setting by setting: under setting [1], 102 nM; under setting [2], 15.2 nM; under setting [3], 17.4 nM.

Consider “GCCAAUGACUGAGGAUAUGCUUAUAGACAUGAGGAUCACCCAUGUAAAUGGGACAUGUCAAACCAGCAGAAGGCAGGACCUGGC [Arused] (Eterna round: R96, puzzle: Exclusion NG 2)”, for which the “apparent KD of MS2 coat protein” value turned out to be 69 nM (input ligand: FMN 200 uM), 585 nM under setting [4] and 514 nM (input ligand: none).

On to “GCCAGAGCAGGAUAUUCAAUAUGUCACAUGAGGAUCACCCAUGUCCAGCGAAAGCUGGAGGGAGAAGGGCUCUGGC [Fiskers Ex 5 - 18] (puzzle: Exclusion 5)”, for which the “apparent KD of MS2 coat protein” value reads like this: under setting [1], 23.7 nM; under setting [2], 89.3 nM; under setting [3], 119 nM.

Regarding “GCCAGCGUAUAGGAUAUGGCCGGCUUUUGAGUACCAGAAGGAUACACAUGAGGAUCACCCAUGUGGCAUUCGUC [Eternabot (L2) Solution 71] (Eterna round: R97, puzzle: Exclusion 6)”, the “apparent KD of MS2 coat protein” value amounted to 20.5 nM (input ligand: FMN 200 uM) and 14.7 nM (input ligand: none).

Consider “GCCAUGUCAGGAUAUGCUUCAAAGCACGUACAGAGCUUGAAGUAGAAGGGACAUGAGGAUCACCCAUGUGCCUA [Eternabot (L1) Solution 80] (Eterna round: R97, puzzle: Exclusion 4)”, for which the “apparent KD of MS2 coat protein” value worked out at 40.2 nM (input ligand: FMN 200 uM) and 20 nM (input ligand: none).

Consider “GCCCUCACAGUGAGGAUAUCUGAGCAUCCCGCUAAGGAGAAGGCACAUGAGGAUCACCCAUGUAAUUGGUUUAA [BmEX4 A.22] (Eterna round: R97, puzzle: Brourd's mod of Exclusion 4)”, for which the “apparent KD of MS2 coat protein” value runs as follows: (input ligand: FMN 200 uM) 124 nM; (input ligand: none) 39.8 nM.

With “GCCGAAAAUGUGAGGAUAUACCUAUGGAUACAUAGGUAGAAGGCACAUGAGGAUCACCCAUGUGUUUCAACGGC [Eli bmx4 4.21] (Eterna round: R97, puzzle: Brourd's mod of Exclusion 4)”, the “apparent KD of MS2 coat protein” value by setting is: (input ligand: FMN 200 uM) 94.8 nM; (input ligand: none) 22.2 nM.

Take “GCCGAAAGUGUGAGGAUAUACCUAUGGAUACAUAGGUAGAAGGCACAUGAGGAUCACCCAUGUGGGAAAACGGC [Eli bmx4 4.30] (Eterna round: R97, puzzle: Brourd's mod of Exclusion 4)”: the “apparent KD of MS2 coat protein” value is, setting by setting: (input ligand: FMN 200 uM) 1140 nM; (input ligand: none) 190 nM.

Take “GCCGAUUAAGUCAGGAUAUACCUAUGGAUACAUAGGUAGAAGGGACAUGAGGAUCACCCAUGUUCCUCACCGGC [Fiskers BMX 4 - 15] (puzzle: Brourd's mod of Exclusion 4)”: the “apparent KD of MS2 coat protein” value under setting [2] was found to be 12 nM.

In the case of “GCCGCUGUAGGAUAUGCCAGGGUGGCAGCUUGAUGUGUGGCACAUGAGGAUCACCCAUGUAGAAGGACAGAAAG [Isvelera] (puzzle: Exclusion 2)”, under setting [2], the “apparent KD of MS2 coat protein” value is 17.1 nM.

Take “GCCGUAAGUGUGAGGAUAUACCUAUGGAAACAUAGGUAGAAGGCACAUGAGGAUCACCCAUGUCCUUAAUCGGC [Mat - Exclusion 4 - Eli Mod - D4] (Eterna round: R97, puzzle: Brourd's mod of Exclusion 4)”: the “apparent KD of MS2 coat protein” value reads like this: (input ligand: FMN 200 uM) 366 nM; (input ligand: none) 224 nM.

(Values after the supplement of paper PMC9170038.)
